Assay results as given in the Human Domainome abundance scans (Beltran et al. 2025).
± gives the uncertainty stated by the source.

B1: Gamma-crystallin C, residues 91 to 170; numbered along this chain, P07315 (parent)
chain: RLYEREDHKGLMMELSEDCPSIQDRFHLSEIRSLHVLEGCWVLYELPNYRGRQYLLRPQEYRRCQDWGAMDAKAGSLRRV

Variants of: B1
Assay: abundance fitness (aPCA) (normalised: wild type 0, dead -1); higher = more abundant; growth selection in yeast, the domain comes from the species named
Settings: Homo sapiens

Row | Variant | abundance fitness
1 | E45K | -0.465 ± 0.15
2 | E45T | -0.118 ± 0.068
3 | E45W | -0.644 ± 0.15
4 | E45Q | -0.211 ± 0.086
5 | E45R | -0.437 ± 0.063
6 | E45S | -0.149 ± 0.071
7 | E45H | -0.582 ± 0.19
8 | L77V | -0.169 ± 0.096
9 | L77D | -0.94 ± 0.5
10 | L77C | -0.325 ± 0.16
11 | D71H | -0.173 ± 0.11
12 | D71Y | -0.134 ± 0.12
13 | D71W | -0.281 ± 0.085
14 | D71G | -0.165 ± 0.067
15 | W67Q | -0.681 ± 0.19
16 | W67T | -0.612 ± 0.27
17 | W67P | -0.935 ± 0.17
18 | W67G | -1 ± 0.19
19 | W67S | -0.778 ± 0.11
20 | L46R | -0.146 ± 0.056
21 | L46Q | -0.262 ± 0.13
22 | L46E | 0.04 ± 0.1
23 | L46C | -0.075 ± 0.15
24 | L46G | -0.27 ± 0.037

Row | Variant | abundance fitness
25 | E38S | -0.015 ± 0.044
26 | E38D | 0.013 ± 0.069
27 | E38N | 0.102 ± 0.16
28 | E38L | -0.379 ± 0.073
29 | G10L | -1.06 ± 0.17
30 | G10Y | -0.623 ± 0.41
31 | G10T | -1.01 ± 0.49
32 | G10D | -0.731 ± 0.14
33 | G10Q | -0.775 ± 0.21
34 | L34T | -0.848 ± 0.26
35 | L34S | -0.897 ± 0.13
36 | L34M | 0.027 ± 0.093
37 | L34C | -0.161 ± 0.08
38 | L34Q | -0.781 ± 0.45
39 | L34Y | -0.572 ± 0.31
40 | Q65E | -0.044 ± 0.15
41 | Q65K | -0.06 ± 0.12
42 | G39D | -0.298 ± 0.13
43 | G39L | -0.89 ± 0.17
44 | G39T | -0.892 ± 0.19
45 | Y44T | -1.04 ± 0.24
46 | Y44W | -0.599 ± 0.081
47 | Y44E | -0.957 ± 0.27
48 | L37N | -0.363 ± 0.14

Row | Variant | abundance fitness
49 | L37F | -0.263 ± 0.099
50 | L37P | -0.813 ± 0.2
51 | L37Y | -0.3 ± 0.12
52 | L37E | -0.481 ± 0.12
53 | L37K | -0.136 ± 0.16
54 | L37D | -0.254 ± 0.12
55 | L37Q | -0.256 ± 0.13
56 | P47R | -0.502 ± 0.086
57 | P47D | -0.178 ± 0.094
58 | P47L | -0.601 ± 0.12
59 | E60R | 0.006 ± 0.071
60 | E60F | -0.468 ± 0.35
61 | E60I | -0.219 ± 0.18
62 | E60W | -0.206 ± 0.084
63 | E60Q | 0.034 ± 0.1
64 | L55E | -0.074 ± 0.14
65 | L55I | 0.075 ± 0.12
66 | L55F | -0.078 ± 0.12
67 | L55K | -0.161 ± 0.17
68 | L55M | -0.01 ± 0.084
69 | L55W | -0.098 ± 0.092
70 | Y3K | -0.948 ± 0.27
71 | Y3Q | -0.88 ± 0.35
72 | Y3R | -0.846 ± 0.27

Row | Variant | abundance fitness
73 | Y3L | -1.04 ± 0.49
74 | Y3C | -0.64 ± 0.41
75 | D66T | -0.934 ± 0.29
76 | H35T | 0.081 ± 0.069
77 | H35K | -0.029 ± 0.1
78 | H35C | -0.206 ± 0.076
79 | H35P | -0.789 ± 0.32
80 | H35D | -0.107 ± 0.086
81 | H35L | -0.15 ± 0.06
82 | H35A | -0.053 ± 0.057
83 | H35V | 0.036 ± 0.061
84 | D7A | -0.248 ± 0.061
85 | D7L | -0.554 ± 0.078
86 | D7C | -0.237 ± 0.099
87 | D7V | -0.936 ± 0.12
88 | D7R | -0.505 ± 0.085
89 | D7G | -0.186 ± 0.057
90 | L28E | -0.451 ± 0.089
91 | L28A | -0.129 ± 0.055
92 | E6Q | -0.445 ± 0.41
93 | E6L | -0.892 ± 0.32
94 | E6N | -0.416 ± 0.43
95 | E6G | -0.803 ± 0.1
96 | E6T | -0.362 ± 0.21

Row | Variant | abundance fitness
97 | E6V | -0.53 ± 0.15
98 | R63Y | -0.23 ± 0.18
99 | R63T | 0.016 ± 0.076
100 | R63L | -0.654 ± 0.052
101 | R63M | -0.32 ± 0.11
102 | R63D | -0.58 ± 0.16
103 | R63S | -0.091 ± 0.057
104 | Q59A | 0.041 ± 0.1
105 | Q59S | -0.116 ± 0.06
106 | Q59F | -0.377 ± 0.14
107 | Q59M | -0.038 ± 0.12
108 | Q59H | -0.245 ± 0.1
109 | G51R | -0.589 ± 0.098
110 | G51T | -0.49 ± 0.11
111 | G51L | -0.807 ± 0.19
112 | G51C | -0.695 ± 0.27
113 | G51H | -0.752 ± 0.46
114 | L43P | -0.992 ± 0.4
115 | L43S | -0.865 ± 0.2
116 | L43C | -0.701 ± 0.13
117 | L43Y | -0.224 ± 0.15
118 | L43A | -0.931 ± 0.24
119 | C40W | -0.103 ± 0.097
120 | C40L | -0.042 ± 0.065

Row | Variant | abundance fitness
121 | C40E | 0.052 ± 0.081
122 | C40Q | 0.055 ± 0.1
123 | C40N | 0.119 ± 0.14
124 | C40T | 0.07 ± 0.086
125 | C40H | -0.09 ± 0.16
126 | C40I | -0.222 ± 0.2
127 | V36R | -1.08 ± 0.28
128 | V36N | -0.772 ± 0.3
129 | H27Q | -0.034 ± 0.1
130 | H27F | -0.414 ± 0.14
131 | H27R | -0.037 ± 0.059
132 | H27T | -0.345 ± 0.096
133 | P58D | -0.167 ± 0.15
134 | P58N | -0.268 ± 0.13
135 | P58S | -0.202 ± 0.08
136 | P58G | -0.744 ± 0.13
137 | P58H | -0.587 ± 0.3
138 | F26W | -0.007 ± 0.081
139 | F26I | -0.553 ± 0.41
140 | F26A | -0.564 ± 0.084
141 | F26R | -0.886 ± 0.22
142 | F26T | -0.217 ± 0.12
143 | F26C | -0.317 ± 0.17
144 | S33Q | -1.03 ± 0.31

Row | Variant | abundance fitness
145 | S33G | -0.872 ± 0.1
146 | S33D | -1.07 ± 0.4
147 | S33W | -0.98 ± 0.25
148 | K73M | -0.231 ± 0.11
149 | K73V | -0.18 ± 0.08
150 | K73Q | -0.264 ± 0.16
151 | I22M | -0.562 ± 0.13
152 | I22R | -0.771 ± 0.17
153 | I22S | -0.975 ± 0.35
154 | I22L | -0.084 ± 0.059
155 | I22C | -0.61 ± 0.27
156 | M70E | 0.034 ± 0.1
157 | M70R | -0.016 ± 0.039
158 | M70Y | -0.105 ± 0.14
159 | M70L | -0.063 ± 0.06
160 | M70W | -0.257 ± 0.075
161 | E30R | -0.184 ± 0.037
162 | E30A | -0.133 ± 0.049
163 | E30F | -0.234 ± 0.099
164 | E30Y | -0.145 ± 0.1
165 | E30W | -0.455 ± 0.052
166 | E30C | -0.117 ± 0.054
167 | E30T | -0.186 ± 0.055
